Source: patent US20230149509A1 (Genentech, published 2023)

T1: CD122/CD132 on human lymphocytes (CD8+ T cells and NK cells in human PBMCs) (human, UniProt P31785 23-369)
T1 sequence 1: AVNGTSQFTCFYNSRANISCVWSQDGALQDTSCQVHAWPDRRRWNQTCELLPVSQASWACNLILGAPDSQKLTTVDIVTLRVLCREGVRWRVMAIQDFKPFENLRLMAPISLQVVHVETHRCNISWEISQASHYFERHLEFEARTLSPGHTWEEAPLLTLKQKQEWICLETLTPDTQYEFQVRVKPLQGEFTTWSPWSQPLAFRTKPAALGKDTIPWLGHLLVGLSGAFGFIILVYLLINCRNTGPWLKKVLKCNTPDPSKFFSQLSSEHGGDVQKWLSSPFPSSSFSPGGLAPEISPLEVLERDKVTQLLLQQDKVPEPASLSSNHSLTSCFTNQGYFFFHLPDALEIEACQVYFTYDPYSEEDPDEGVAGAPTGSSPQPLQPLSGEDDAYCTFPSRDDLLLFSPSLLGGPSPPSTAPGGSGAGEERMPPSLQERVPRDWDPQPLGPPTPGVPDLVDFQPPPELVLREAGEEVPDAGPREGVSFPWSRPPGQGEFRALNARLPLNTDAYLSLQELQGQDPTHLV
T1 sequence 2: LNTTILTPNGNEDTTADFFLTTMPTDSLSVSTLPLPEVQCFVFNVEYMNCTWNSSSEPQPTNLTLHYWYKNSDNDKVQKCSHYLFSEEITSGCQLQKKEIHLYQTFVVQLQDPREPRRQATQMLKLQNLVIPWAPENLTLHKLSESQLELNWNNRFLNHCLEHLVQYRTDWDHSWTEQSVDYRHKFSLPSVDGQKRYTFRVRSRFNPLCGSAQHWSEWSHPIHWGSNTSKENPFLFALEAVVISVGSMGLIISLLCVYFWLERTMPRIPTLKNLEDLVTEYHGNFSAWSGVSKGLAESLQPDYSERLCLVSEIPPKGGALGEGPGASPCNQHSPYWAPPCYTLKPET

T2: CD122/CD132 on cynomolgus monkey lymphocytes (CD8+ T cells and NK cells in cynomolgus PBMCs) (cynomolgus monkey, UniProt Q38J85 27-551; A0A2K5VGJ6 23-369)
T2 sequence (looked up) 1: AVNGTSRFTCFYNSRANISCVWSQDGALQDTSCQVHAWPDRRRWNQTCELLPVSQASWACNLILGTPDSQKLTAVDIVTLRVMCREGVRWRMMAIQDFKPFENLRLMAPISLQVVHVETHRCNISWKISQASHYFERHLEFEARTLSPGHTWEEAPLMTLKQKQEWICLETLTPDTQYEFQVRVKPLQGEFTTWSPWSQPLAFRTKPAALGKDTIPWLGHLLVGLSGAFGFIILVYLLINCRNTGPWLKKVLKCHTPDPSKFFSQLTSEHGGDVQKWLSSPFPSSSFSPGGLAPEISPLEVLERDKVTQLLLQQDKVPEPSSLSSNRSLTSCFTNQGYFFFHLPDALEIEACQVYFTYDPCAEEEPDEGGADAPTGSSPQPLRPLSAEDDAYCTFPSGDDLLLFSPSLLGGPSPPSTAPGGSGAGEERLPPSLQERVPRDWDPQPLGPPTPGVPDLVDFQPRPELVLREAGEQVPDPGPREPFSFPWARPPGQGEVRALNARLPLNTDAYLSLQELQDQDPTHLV
T2 sequence (looked up) 2: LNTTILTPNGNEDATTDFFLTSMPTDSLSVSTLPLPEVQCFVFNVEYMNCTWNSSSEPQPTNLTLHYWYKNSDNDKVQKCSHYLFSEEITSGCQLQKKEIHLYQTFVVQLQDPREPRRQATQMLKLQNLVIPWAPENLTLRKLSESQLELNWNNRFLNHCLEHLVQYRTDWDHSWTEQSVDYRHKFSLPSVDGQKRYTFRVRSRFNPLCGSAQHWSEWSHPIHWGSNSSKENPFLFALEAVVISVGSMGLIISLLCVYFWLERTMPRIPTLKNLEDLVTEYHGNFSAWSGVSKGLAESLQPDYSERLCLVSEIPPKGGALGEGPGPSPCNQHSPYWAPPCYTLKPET

T3: mouse FcRn (mouse, UniProt Q61559 22-297; P01887 21-119)
T3 construct: The construct is not described
T3 sequence (looked up): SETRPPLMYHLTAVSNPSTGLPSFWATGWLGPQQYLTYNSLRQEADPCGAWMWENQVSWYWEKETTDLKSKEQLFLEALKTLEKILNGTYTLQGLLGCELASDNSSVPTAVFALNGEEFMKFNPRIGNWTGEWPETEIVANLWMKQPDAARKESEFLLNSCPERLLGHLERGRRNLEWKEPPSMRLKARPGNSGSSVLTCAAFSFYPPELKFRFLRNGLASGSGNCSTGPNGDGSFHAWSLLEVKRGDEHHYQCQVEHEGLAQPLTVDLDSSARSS
T3 sequence (b2m, looked up): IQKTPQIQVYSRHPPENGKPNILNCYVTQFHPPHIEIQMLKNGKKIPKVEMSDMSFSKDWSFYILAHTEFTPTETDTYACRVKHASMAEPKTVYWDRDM


Tests used:
[1] = molecular target: T4, human complement component 1q (C1q) (human, UniProt P02745 23-245; P02746 28-253; P02747 29-245); assay: BLI; tested as the mixture XENP24306+XENP32803
T4 construct: The subunit composition is from general knowledge; also called human C1q
T4 sequence (P02745 23-245 limits assumed, chain 1 of 3): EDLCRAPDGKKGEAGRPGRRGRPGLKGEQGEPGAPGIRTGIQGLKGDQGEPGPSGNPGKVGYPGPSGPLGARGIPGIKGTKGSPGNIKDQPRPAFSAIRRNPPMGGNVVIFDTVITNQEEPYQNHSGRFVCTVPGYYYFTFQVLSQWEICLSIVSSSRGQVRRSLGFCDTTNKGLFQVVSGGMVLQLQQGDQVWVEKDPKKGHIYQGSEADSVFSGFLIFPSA
T4 sequence (P02746 28-253 limits assumed, chain 2 of 3): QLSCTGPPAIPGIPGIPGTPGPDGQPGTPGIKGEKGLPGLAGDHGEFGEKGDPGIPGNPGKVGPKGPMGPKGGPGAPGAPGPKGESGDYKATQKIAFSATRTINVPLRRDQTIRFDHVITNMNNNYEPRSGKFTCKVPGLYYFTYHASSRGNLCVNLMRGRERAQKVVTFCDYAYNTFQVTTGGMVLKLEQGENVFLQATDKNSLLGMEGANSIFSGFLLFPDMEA
T4 sequence (P02747 29-245 limits assumed, chain 3 of 3): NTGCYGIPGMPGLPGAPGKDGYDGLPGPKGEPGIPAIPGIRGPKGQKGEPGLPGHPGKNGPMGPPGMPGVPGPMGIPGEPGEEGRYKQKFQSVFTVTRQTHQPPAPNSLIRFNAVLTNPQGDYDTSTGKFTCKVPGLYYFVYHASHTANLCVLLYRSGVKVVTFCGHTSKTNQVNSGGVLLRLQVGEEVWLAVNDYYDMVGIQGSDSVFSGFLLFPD

[2] = molecular target: T1, CD122/CD132 on human lymphocytes (CD8+ …); assay: cell-based or functional assay
[3] = molecular target: T2, CD122/CD132 on cynomolgus monkey …; assay: cell-based or functional assay
[4] = molecular target: T3, mouse FcRn; assay: BLI, pH 6.0; tested as the mixture
[5] = molecular target: T5, human FcRn (human, UniProt P55899 24-297; P61769 21-119); assay: BLI, pH 6.0; tested as the mixture
T5 construct: The construct is not described; also called human neonatal Fc receptor

[6] = molecular target: T6, cynomolgus monkey FcRn (cynomolgus monkey, UniProt Q8SPV9 24-297; Q8SPW0 21-119); assay: BLI, pH 6.0; tested as the mixture
T6 construct: The construct is not described
T6 sequence (Q8SPV9 24-297 limits assumed, chain 1 of 2): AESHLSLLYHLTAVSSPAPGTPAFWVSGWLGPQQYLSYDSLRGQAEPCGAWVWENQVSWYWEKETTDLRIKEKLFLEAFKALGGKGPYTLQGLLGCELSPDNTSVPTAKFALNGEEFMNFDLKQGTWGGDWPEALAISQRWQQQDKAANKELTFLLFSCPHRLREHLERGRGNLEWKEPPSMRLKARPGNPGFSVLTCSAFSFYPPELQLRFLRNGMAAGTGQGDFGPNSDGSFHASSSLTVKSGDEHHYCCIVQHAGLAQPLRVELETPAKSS
T6 sequence (Q8SPW0 21-119 limits assumed, chain 2 of 2): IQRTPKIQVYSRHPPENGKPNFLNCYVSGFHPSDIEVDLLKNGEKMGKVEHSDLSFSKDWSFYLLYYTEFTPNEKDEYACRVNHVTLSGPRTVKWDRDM

| binding result [1] | CD8+ T cell proliferation (Ki67+) in human PBMCs, EC50 [2] | NK-cell proliferation (Ki67+) in human PBMCs, EC50 [2] | potency on CD8+ terminal effector T cell proliferation (Ki67) in human PBMC, fold lower than XENP22853 (wild-type IL-15/wild-type IL-15Rα heterodimer Fc fusion) [2] | potency on CD8+ terminal effector T cell proliferation (Ki67) in human PBMC, fold lower than recombinant wild-type IL-15 [2] | CD8+ T cell proliferation in cynomolgus monkey PBMCs, EC50 [3] | NK-cell proliferation in cynomolgus monkey PBMCs, EC50 [3] | binding result [4] | binding result [5] | binding result [6] | Binder |
| --- | --- | --- | --- | --- | --- | --- | --- | --- | --- | --- |
| no binding | 12.7 µg/mL | 1.2 µg/mL | ~400 fold | ~900 fold | 3.8 µg/mL | 0.5 µg/mL | binds | binds | binds | XENP24306 (Fc fusion, All experiments used a mixture of XENP24306 (~82%) and XENP32803 (~18%), printed as 'XENP24306+XENP32803'; Each result is written once for each of the two members; also called XmAb24306; XENP24306+XENP32803 (the ~82% component of the tested combination)) chain 1: NWVNVISDLKKIEDLIQSMHIDATLYTESNVHPSCKVTAMKCFLLELQVISLESGDASIHDTVQDLIILANNSLSSNGNVTESGCKECEELEEKNIKEFLQSFVHIVQMFINTSGGGGSEPKSSDKTHTCPPCPAPPVAGPSVFLFPPKPKDTLMISRTPEVTCVVVDVKHEDPEVKFNWYVDGVEVHNAKTKPREEEYNSTYRVVSVLTVLHQDWLNGKEYKCKVSNKALPAPIEKTISKAKGQPREPQVYTLPPSREEMTKNQVSLTCDVSGFYPSDIAVEWESDGQPENNYKTTPPVLDSDGSFFLYSKLTVDKSRWEQGDVFSCSVLHEALHSHYTQKSLSLSPGK chain 2: ITCPPPMSVEHADIWVKSYSLYSRERYICNSGFKRKAGTSSLTECVLNKATNVAHWTTPSLKCIRGGGGSEPKSSDKTHTCPPCPAPPVAGPSVFLFPPKPKDTLMISRTPEVTCVVVDVKHEDPEVKFNWYVDGVEVHNAKTKPREEQYNSTYRVVSVLTVLHQDWLNGKEYKCKVSNKALPAPIEKTISKAKGQPREPQVYTLPPSREQMTKNQVKLTCLVKGFYPSDIAVEWESNGQPENNYKTTPPVLDSDGSFFLYSKLTVDKSRWQQGNVFSCSVLHEALHSHYTQKSLSLSPGK |
| no binding | 12.7 µg/mL | 1.2 µg/mL | ~400 fold | ~900 fold | 3.8 µg/mL | 0.5 µg/mL | binds | binds | binds | XENP32803 (Fc fusion, All experiments used a mixture of XENP24306 (~82%) and XENP32803 (~18%), printed as 'XENP24306+XENP32803'; Each result is written once for each of the two members; also called XENP24306+XENP32803 (the ~18% component of the tested combination); IL15/IL15Rα heterodimeric protein) chain 1: NWVNVISDLKKIEDLIQSMHIDATLYTESNVHPSCKVTAMKCFLLELQVISLESGDASIHDTVQDLIILANNSLSSNGNVTESGCKECEELEEKNIKEFLQSFVHIVQMFINTSGGGGSEPKSSDKTHTCPPCPAPPVAGPSVFLFPPKPKDTLMISRTPEVTCVVVDVKHEDPEVKFNWYVDGVEVHNAKTKPREEEYNSTYRVVSVLTVLHQDWLNGKEYKCKVSNKALPAPIEKTISKAKGQPREPQVYTLPPSREEMTKNQVSLTCDVSGFYPSDIAVEWESDGQPENNYKTTPPVLDSDGSFFLYSKLTVDKSRWEQGDVFSCSVLHEALHSHYTQKSLSLSPGK chain 2: ITCPPPMSVEHADIWVKSYSLYSRERYICNSGFKRKAGTSSLTECVLNKATNVAHWTTPSLKCIRGGGGSEPKSSDKTHTCPPCPAPPVAGPSVFLFPPTPKDTLMISRTPEVTCVVVDVKHEDPEVKFNWYVDGVEVHNAKTKPREEQYNSTYRVVSVLTVLHQDWLNGKEYKCKVSNKALPAPIEKTISKAKGQPREPQVYTLPPSREQMTKNQVKLTCLVKGFYPSDIAVEWESNGQPENNYKTTPPVLDSDGSFFLYSKLTVDKSRWQQGNVFSCSVLHEALHSHYTQKSLSLSPGK |
